Experimental data from US20040241754A1, “Modulating neuronal plasticity” (The Salk Institute for Biological Studies, priority 2003, published 2004).
“Also recorded” adds a separate entry of the source. Ends that are not written are not given here.

Key:
[1] = tested on: mossy fiber synapses of hippocampal CA3 pyramidal neurons; assay: Forskolin-mediated potentiation of mossy fiber EPSCs; type: cell-based, mice; settings: for forskolin potentiation of mossy fiber EPSCs after pre-application of Fc fusion protein: Fc fusion protein bath applied before forskolin; for effect on forskolin enhancement / mossy fiber transmission: bath application
[2] = tested on: mossy fiber synapses of hippocampal CA3 pyramidal neurons; assay: Mossy fiber LTP, whole-cell patch clamp in hippocampal slices; type: cell-based, mice; settings: for LTP (potentiation of EPSCs after tetanic stimulation): bath application 5 μg/ml
Protocol: The role of the GluR2 subunit in LTP at mossy fiber terminals was evaluated in whole cell patch clamp experiments using hippocampal CA3 pyramidal neurons. Briefly, transverse hippocampal slices (350 μm) were made from P12-18 mice (strain 129SvEv) as previously described (Contractor et al., Neuron 29, 209-16. (2001)). Slices were transferred to a recording chamber, and whole-cell patch clamp recordings made from visually identified pyramidal cells in the CA3 region of the hippocampus. The recording electrode (i.e., patch electrode) is filled with an “internal” solution described below. A seal between the glass of the electrode and the membrane of the cell is made. The seal is then “broken through” by pushing the electrode through the membrane to gain low resistance access to the cell interior and enable voltage clamping of the cell membrane. This also allows dialysis of the cell with test reagents such as peptides and antibodies. A stimulating electrode is attached to a current source and allows current to stimulate action potentials while a reference electrode is placed in the recording bath. The composition of the internal solution was: 95 mM CsF, 25 mM CsCl, 10 mM Cs-HEPES, 10 mM Cs-EGTA, 2 mM NaCl, 2 mM Mg-ATP, 10 mM QX-314, 5 mM TEA-Cl, 5 mM 4-AP, pH adjusted to 7.3 with CsOH.
Peptides were added directly to the internal solution on the day of the experiment from frozen stocks in protease inhibitors made up in phosphate buffered saline (PBS). To avoid leakage of peptides or antibodies into the extracellular space, pipette tips were filled with normal internal solution and then the pipette was backfilled with peptide/antibody containing internal fluid. The final concentration of peptides was 50 μM in all experiments. The final concentration of protease inhibitors were: bestatin 2 μg/ml, leupeptin 25 ng/ml, pepstatin 35 ng/ml, aprotinin 100 ng/ml.
In control experiments where peptides were not included, internal solutions were made up in exactly the same way with protease inhibitors in PBS but lacking any added peptide. Antibodies were made up in PBS stock and added directly to the internal solution at a final concentration of 20 μg/ml. The pH and osmolarity of all internal solutions were checked before use. Series resistances (Rs) were generally <10M and were continuously monitored throughout the duration of the experiment. […] Experiments using mutant mice were performed with heterozygous breedings blind to the genotype of the animal.
Mossy fiber EPSCs were evoked with a monopolar glass electrode positioned in the stratum lucidum. EPSCs were evaluated using a 40 ms interval between recordings. All recordings were made in the continuous presence of bicuculline (10 μM), picrotoxin (50 μM) and the NMDA receptor antagonist D-AP5 [D(-)-2-Amino-5-phosphonopentanoic acid; 50 μM]. The group II mGluR agonist, LCCG-1 (10 μM), which selectively depresses mossy fiber transmission, was applied at the end of each experiment. LTP was induced by tetanic stimulation comprising three 1 s stimulations (100 Hz) with a 10 s interval. Data are presented as mean±SEM. Parameters were compared using the Student's unpaired t-test where not specified, and the K-S test, p<0.05 was considered significant.
Cumulative probability is determined by ranking the EPSC data set from the highest to the lowest value from 20 to 30 minutes post tetanization. Each point is graphed with its corresponding percentile. […] The lowest LTP value was about 40% signified by the lowest point on the 1 st graph (open circles) and the largest LTP was about 160%.

[3] = biological target: presynaptic ephrin-B ligands; assay: cell-based or functional assay
[4] = peptide 50 μM in patch electrode, 40 ms interval
[5] = Fc fusion protein, bath application

C=C[C@@]1(C)CC(=O)[C@]2(O)[C@@]3(C)[C@@H](O)CCC(C)(C)[C@@H]3[C@H](O)[C@H](OC(C)=O)[C@@]2(C)O1 [forskolin, reference compound]
potentiation of mossy fiber EPSCs by forskolin ([1]; bath application of forskolin alone, 20-30 minutes after application): 275±38%

N[C@H](C(=O)O)[C@H]1C[C@@H]1C(=O)O [LCCG-1, (2S,1′S,2′S)-2-(carboxycyclopropyl)glycine, reference compound]
effect on mossy fiber EPSC ([2]; applied at the end of each experiment, 10 μM): caused inhibition of the EPSC

LHLHGTGIQV [EphA7 peptide, reference compound]
LTP (potentiation of the EPSC after tetanic stimulation) ([2]; peptide 50 μM in patch electrode (postsynaptic), 25 to 30 minutes after tetanic stimulation): 250±46% | LTP PPR (paired pulse ratio after LTP induction) [2, 4]: 2.3±0.22 | control PPR (paired pulse ratio before LTP induction) [2, 4]: 2.8±0.15 | PTP (post-tetanic potentiation) ([2]; peptide 50 μM in patch electrode, immediately following tetanic stimulation): 990±180% | paired pulse ratio after LTP induction versus pretetanic ([2]; peptide in patch electrode): significantly reduced relative to pretetanic recording

B1: ephrin-B1-Fc: mouse ephrin (Met 1 to Ser 229), a linker, Human gamma heavy chain (Pro 100 to Lys 330) and (His)5 (protein)
chain (part 1 of 2): ATPLAKNLEPVSWSSLNPKFLSGKGLVIYPKIGDKLDIICPRAEAGRPYEYYKLYLVRPEQAAACSTVLDPNVLVTCNKPHQEIRFTIKFQEFSPNYMGLEFKKYHDYYITSTSNGSLEGLENREGGVCRTRTMKIVMKVGQDPNAVTPEQLTTSRPSKESDNTVKTATQAPGRGSQGDSDGKHETVNQEEKSGPGAGGGGSGDSIEGRMD
chain (part 2 of 2): HHHHH
modifications: left off: a dimerising Fc or GST
PTP (post-tetanic potentiation) [2, 5]: 430±100% | effect on LTP induction [2, 5]: significantly impair LTP induction | effect on basal synaptic transmission / baseline EPSC amplitudes [2, 5]: did not alter the baseline EPSC amplitudes; also recorded: does not affect basal transmission | effect on post-tetanic potentiation / short-term plasticity [2, 5]: significantly impaired | paired pulse ratio, effect [2, 5]: no significant difference in PPR | LTP (potentiation of EPSCs after tetanic stimulation) ([2]; Fc fusion protein): 139±12% | forskolin potentiation of mossy fiber EPSCs after pre-application of Fc fusion protein [1]: 219±15% | effect on forskolin enhancement / mossy fiber transmission [1]: does not affect Forskolin enhancement

B2: EphB2-Fc fusion protein (Fc fusion, mouse, not shown: a dimerising Fc or GST)
chain (part 1 of 2): VEETLMDSTTATAELGWMVHPPSGWEEVSGYDENMNTIRTYQVCNVFESSQNNWLRTKFIRRRGAHRIHVEMKFSVRDCSSIPSVPGSCKETFNLYYYEADFDLATKTFPNWMENPWVKVDTIAADESFSQVDLGGRVMKINTEVRSFGPVSRNGFYLAFQDYGGCMSLIAVRVFYRKCPRIIQNGAIFQETLSGAESTSLVAARGSCIANAEEVDVPIKLYCNGDGEWLVPIGRCMCKAGFEAVENGTVCRGCPSGTFKANQGDEACTHCPINSRTTSEGATNCVCRNGYYRADLDPLDMPCTTIPSAPQAVISSVNETSLMLEWTPPRDSGGREDLVYNIICKSCGSGRGACTRCGDNVQYAPRQLGLTEPRIYISDLLAHTQYTFEIQAVNGVTDQSPFSPQFASVNITTNQAAPSAVSIMHQVSRTVDSITLSWSQPDQPNGVILDYELQYYEKELSEYNATAIKSPTNTVTVQGLKAGAIYVFQVRARTVAGYGRYSGKMYFQTMTEAEYQTSIKEKLPLIVGDIEGRMD
chain (part 2 of 2): HHHHH
LTP after tetanic stimulation in the presence of EphB2-Fc [3]: 134% | basal EPSC amplitude during bath application (5 µg/ml) [3]: 145% | forskolin potentiation of mossy fiber EPSCs 30 mins after washout, after EphB2-Fc [3]: 118% | post-tetanic potentiation [3]: 420% | potentiation of baseline EPSC amplitudes on bath application [3]: 148%

B3: EphB2-Fc: mouse EphB2 (Met 1 to Lys 546), a linker, Human gamma heavy chain (Pro 100 to Lys 330) and (His)5 (protein)
chain (part 1 of 2): VEETLMDSTTATAELGWMVHPPSGWEEVSGYDENMNTIRTYQVCNVFESSQNNWLRTKFIRRRGAHRIHVEMKFSVRDCSSIPSVPGSCKETFNLYYYEADFDLATKTFPNWMENPWVKVDTIAADESFSQVDLGGRVMKINTEVRSFGPVSRNGFYLAFQDYGGCMSLIAVRVFYRKCPRIIQNGAIFQETLSGAESTSLVAARGSCIANAEEVDVPIKLYCNGDGEWLVPIGRCMCKAGFEAVENGTVCRGCPSGTFKANQGDEACTHCPINSRTTSEGATNCVCRNGYYRADLDPLDMPCTTIPSAPQAVISSVNETSLMLEWTPPRDSGGREDLVYNIICKSCGSGRGACTRCGDNVQYAPRQLGLTEPRIYISDLLAHTQYTFEIQAVNGVTDQSPFSPQFASVNITTNQAAPSAVSIMHQVSRTVDSITLSWSQPDQPNGVILDYELQYYEKELSEYNATAIKSPTNTVTVQGLKAGAIYVFQVRARTVAGYGRYSGKMYFQTMTEAEYQTSIKEKLPLIVGDIEGRMD
chain (part 2 of 2): HHHHH
modifications: left off: a dimerising Fc or GST
LTP PPR [2, 5]: 2.2 ±0.2 | PTP (post-tetanic potentiation) [2, 5]: 420±85% | control PPR [2, 5]: 2.5±0.3 | effect on LTP induction [2, 5]: inhibits subsequent tetanus induced LTP | paired pulse ratio, effect [2, 5]: small, non-significant reduction in the baseline PPR; also recorded: not significantly reduced | LTP (potentiation of EPSCs after tetanic stimulation) ([2]; Fc fusion protein): 134±13% | increase in the basal EPSC amplitude ([2]; bath application 5 μg/ml for twenty minutes during baseline recording): 145±13% | forskolin potentiation of mossy fiber EPSCs after pre-application of Fc fusion protein [1]: 118±10% | effect on forskolin enhancement / mossy fiber transmission [1]: inhibits subsequent forskolin effects | potentiation of baseline amplitudes ([1]; bath applied before forskolin): 148±19%
